Measured values as given in patent JP2002536968A (dated 2002).

B1: キメラ抗KDR抗体 c-p1C11 (antibody, from another filing)
scFv: QVKLQQSGAELVGSGASVKLSCTTSGFNIKDFYMHWVKQRPEQGLEWIGWIDPENGDSDYAPKFQGKATMTADSSSNTAYLQLSSLTSEDTAVYYCNAYYGDYEGYWGQGTTVTVSSGGGGSGGGGSGGGGSDIELTQSPAIMSASPGEKVTITCSASSSVSYMHWFQQKPGTSPKLWIYSTSNLASGVPARFSGSGSGTSYSLTISRMEAEDAATYYCQQRSSYPFTFGSGTKLEIK
B2: scFv p1C11 (scFv)
chain: B1 scFv

Columns and labels:
可溶性融合タンパク質 KDR-AP [1] = molecular target: T1, 可溶性融合タンパク質 KDR-AP (human, UniProt P35968 20-764); experiment: BIAcore, KDR-AP immobilised (refers to Table 2)
T1 construct: extracellular domain; Made in NIH3T3 cells; also called KDR-アルカリ性ホスファターゼ融合タンパク質; 固定化KDR; not shown: human placental alkaline phosphatase (AP), from vector AP-tag

可溶性融合タンパク質 KDR-AP [2] = molecular target: T1, 可溶性融合タンパク質 KDR-AP; experiment: competitive VEGF binding ELISA: antibody mixed with KDR-AP, then on VEGF165-coated plate
HUVEC上の細胞表面発現KDR (human) = HUVEC上の細胞表面発現KDR (human) (UniProt P35968); experiment: cell-based or functional assay
可溶性融合タンパク質 KDR-AP [3] = molecular target: T1, 可溶性融合タンパク質 KDR-AP; experiment: BIAcore, KDR-AP immobilised, antibody injected at 25-200 nM
可溶性融合タンパク質 KDR-AP [4] = molecular target: T1, 可溶性融合タンパク質 KDR-AP; experiment: BIAcore, KDR-AP immobilised, soluble scFv injected
可溶性融合タンパク質 KDR-AP [5] = molecular target: T1, 可溶性融合タンパク質 KDR-AP; experiment: direct binding ELISA, soluble scFv on KDR-coated plate; concentration for 50% of maximal binding
可溶性融合タンパク質 KDR-AP [6] = molecular target: T1, 可溶性融合タンパク質 KDR-AP; experiment: competitive VEGF blocking ELISA: scFv mixed with KDR-AP, then on VEGF165-coated plate

T1 sequence (P35968 20-764): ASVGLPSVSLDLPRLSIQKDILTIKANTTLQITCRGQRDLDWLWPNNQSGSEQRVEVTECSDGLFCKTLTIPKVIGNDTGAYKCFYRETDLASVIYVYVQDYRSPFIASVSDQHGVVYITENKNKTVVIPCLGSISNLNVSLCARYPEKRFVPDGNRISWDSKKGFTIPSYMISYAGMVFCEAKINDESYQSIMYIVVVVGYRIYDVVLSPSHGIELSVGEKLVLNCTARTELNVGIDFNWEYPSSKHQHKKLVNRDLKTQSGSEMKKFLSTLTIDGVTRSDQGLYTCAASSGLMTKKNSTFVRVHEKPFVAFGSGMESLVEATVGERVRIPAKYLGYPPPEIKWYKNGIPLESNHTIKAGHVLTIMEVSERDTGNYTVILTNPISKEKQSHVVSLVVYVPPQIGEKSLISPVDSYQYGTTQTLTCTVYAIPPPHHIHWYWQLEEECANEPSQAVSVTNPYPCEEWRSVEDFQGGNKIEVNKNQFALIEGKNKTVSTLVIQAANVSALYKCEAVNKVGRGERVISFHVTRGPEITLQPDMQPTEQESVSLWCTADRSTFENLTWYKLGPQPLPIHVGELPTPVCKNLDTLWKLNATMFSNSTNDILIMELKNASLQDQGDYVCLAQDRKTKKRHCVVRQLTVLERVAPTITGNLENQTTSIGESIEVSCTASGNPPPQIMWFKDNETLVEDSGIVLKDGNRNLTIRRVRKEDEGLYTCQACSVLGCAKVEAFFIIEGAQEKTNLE

Binder | fold higher affinity than parent scFv p1C11 (可溶性融合タンパク質 KDR-AP [1]) [fold] | IC50 (可溶性融合タンパク質 KDR-AP [2]) [nM] | HUVECのVEGF誘導性有糸分裂誘発の50%を抑制するのに必要な抗体濃度 ([3H]-TdR) (HUVEC上の細胞表面発現KDR (human)) [nM] | Kd (可溶性融合タンパク質 KDR-AP [3]) [nM] | Kd (可溶性融合タンパク質 KDR-AP [4]) [nM] | EC50 (可溶性融合タンパク質 KDR-AP [5]) [nM] | IC50 (可溶性融合タンパク質 KDR-AP [6]) [nM]
B1 | 2.5 | 0.8 | 0.8 | 0.82 | – | – | –
B2 | – | 2 | – | – | 2.1 | 0.3 | 3
